Reference: the nanobody polyreactivity screen of Harvey et al. (2022)

Test: yeast display, Sf9 membrane polyspecificity reagent, FACS + sequencing; frameworks hold sequencing errors
In short: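 Using colony PCR, genes from sorted yeast display clones were amplified, then sequenced on MiSeq at 2 × 250 and filtered by CDR length. The clones had been stained with 10% biotinylated, detergent-solubilized Sf9 membrane reagent for 1 hour at 4 °C and sorted by FACS into low and high (top ~1%) gates on anti-HA and streptavidin fluorescence. Polyreactivity labels come from the gate of origin.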

| Sequence | polyreactivity (PSR sort gate) |
| --- | --- |
| QVQLVESGGGLVQAGGSLRLSCGASGRNFPGNAMGWYRQAPGKEREFVAVITSRTGNTYYADSVKGRFTISRDTAKNTVYLQMNSLKPEDSAVYYCNGEQYIWSEDYWGQGTQVSVSS | low polyreactivity |
| QVQLVESGGGLVQAGGSLRLSCGASGRTFSYYPMGWYRQAPGKERELVAAITSSGGRTYYADSVKGRFTISRDNAKNTVYLQMNSLKPEDTAVYYCAKELVKRYYWGQGTQVTVSS | high polyreactivity |
| QVQLVESGGGLVQAGGSLRLSCGASGSTFAINAMGWYRQAPGKERELVAAINWSGTTTYYADSVKGRFTISRDNAKNTVYLQMNSLKPEDTAVYYCNARYYVLRGYDYWGQGTQVTVSS | low polyreactivity |
| QVQLVESGGGLVQAGGSLRLSCGASGSTFNWYTMGWYRQAPGKERELVDAISMNGGRTYYADSVKWRFTISRDKAKNTVYLQMNSLKPEDTAVYYCAAQISFYFAQYNLARFRGYYWGQGTQVTVSS | high polyreactivity |
| QVQLVESGGGLVQAGGSLRLSCGASGSTFPTYAMGWYRQAPGKERELVAVITSSGGRTYYADSVKGRFTISRDNAKNTVYLQMNSLKPEDTAVYYCAKGSGTIYNLYDYWGQGTQVTVSS | high polyreactivity |
| QVQLVESGGGLVQAGGSLRLSCGATGTTFYYYAMGWYRQAPGKERELVPGINTSGGNTYYADSVKGRFTISRDNAKNTVYLQMNSLKPEDTAVYYCAVEGGSLHYAWYLWGYRSGGEYWGQGTQVTVSS | high polyreactivity |
| QVQLVESGGGLVQAGGSLRLSCPASGFIINVYVMGWYRQAPGKERELVAAISGGGSTYYADSVKGRFTISRDNAKNTVSLQMNSLKPEDTAVYYCAAVYYYQNEGYDFWGQGTQVTVSS | low polyreactivity |
| QVQLVESGGGLVQAGGSLRLSCPASGFTFSYYVMGWYRQSPGKERELVAAISSGGRTYYADSVKGRFTISRDNAKNTVYFQMNSLKPEDTAVYYCAAVRYSNEDDYWGQGTQVTVSS | high polyreactivity |
| QVQLVESGGGLVQAGGSLRLSCPASGHIFDYNALGWYRQAPGKERELVAAITSGGTTTYADSVKGRFTISRDNAKHTVYLQMNSLKPEDTAVYYCARKRYFGGWSRYGYGYWGQGTQVTVSS | high polyreactivity |
| QVQLVESGGGLVQAGGSLRLSCPASGIIFHPYAMGWYRQAPGKERQLVAVITWPGDSTYYADSVKGRFTISRDNAKNTVYVQMNSLKPEDTAVYYCNVEAWGTSGELPYDYWGQGTQVTVSS | low polyreactivity |
| QVQLVESGGGLVQAGGSLRLSCPASGNIFWWNARGWYRQAPGKERELVAAITSDSTTYYADSVKGRFTISRDNAKNTVYLQMNSLKPEDTAVYYCAAYSYGGQGVDYGYWGQGTQVTVSS | low polyreactivity |
| QVQLVESGGGLVQAGGSLRLSCPASGRIFTSYAMGWYRQEPGKERELVAAINRGGSTYYADSVKGRFTISRDNAKNTVYLQMNSLKPEDTAVYYCNASQPYNPEFDYWRQGTQVTVSS | low polyreactivity |
| QVQLVESGGGLVQAGGSLRLSCPASGRIFVRNAMGWYRQAPGKERELVAAITTSGGRTYYADSVKGRFTISRDLAKNPVYLQMNSLKPEDTAVYYCAAETRYRNFPYYYWGQCTQVTVSS | high polyreactivity |
| QVQLVESGGGLVQAGGSLRLSCPASGRILYLNVLGWYRQEPGKERELVASITVSGGITYYADSVKGRFTISRDNAKNTVYLQMNSLKPEDTAVYYCAVDAYPPFFYFTSVWFSYDYWGQGTQVTVSS | low polyreactivity |
| QVQLVESGGGLVQAGGSLRLSCPASGRTFKRYAMGWYRQEPGKEMELVASISWRGGSTYYADSVKGRFTISRDNAKNTVYLQMNSLKPEDTAVYYCAAEGPGNVYKLDYWGQGTQVTVSS | low polyreactivity |
| QVQLVESGGGLVQAGGSLRLSCPASGRTFYLYAMGWYRQAPGKVRELVARISGGGGRTYYADSVKGRFTISRDNAKNTVYLQMNSLKPEDSAVYYCNAQSPRGFTTPRQVYPLNGYWGQGTQVTVSS | high polyreactivity |
| QVQLVESGGGLVQAGGSLRLSCPASGSIFGWYPMAWYRQAPGKERELVAAITFYSVNTYYQDSVKGRFTISRDNAKNNVYLQMNSLKPEDTAVYYCSARGATVVSRGKLYYWGQGTQVSVSS | low polyreactivity |
| QVQLVESGGGLVQAGGSLRLSCPASGSIFNSYAMGWYRQAPGKERELVAAISSGGSTNYADSVKGRFTISRDNAKNTVYLQMNSLKPEDTAVYYCAKGSRKSGYKYYHGRVWFGYWGQGTQVTVSS | high polyreactivity |
| QVQLVESGGGLVQAGGSLRLSCPASGSIFYFYGMGWYRQAPGKEREFVAAISLYGGSTYYADSVKGRFTISRDNAKNTVYFQMNSLKPEDTAVYYCAARAWSYYHGKEDYWGQGTQVTVSS | high polyreactivity |
| QVQLVESGGGLVQAGGSLRLSCPASGSIVGYYVMGWYRQAPGKERELVAAISWSSGSTYYADSVKGRFTISRDNAKNTVYLQKNSLKPEDTAVYYCNASNVYFWFVTLEFDYWGQGTQVTVSS | low polyreactivity |
| QVQLVESGGGLVQAGGSLRLSCPASGSSSVYNAMGWYRQAPGKERELVAAISWSGGRTSYADSVKGRFTISRDIAKNTVYLQMNSLKPEDTAVYFCAAHTVYSPPRVAGPGYDYWGQGTQVTVSS | low polyreactivity |
| QVQLVESGGGLVQAGGSLRLSCPASGSTFPYYAMGWYRQAPGKERELVARINWGGSSTYYADSVKGRFTISRDNAKNTVYLQMNSLKPEDTAVYYCARYSSRWSLMDYWGQGTQVTVSS | high polyreactivity |

| Sequence | polyreactivity (PSR sort gate) |
| --- | --- |
| QVQLVESGGGLVQAGGSLRLSCPASGSTFQYYHMGWYRQEPGKERELVASITGSGDSTYYADSVKGRFTISRDNAKNTVYLQMNSLNPEDTAVYYCAAQITWSGYYDYWGQGTQVTVSS | low polyreactivity |
| QVQLVESGGGLVQAGGSLRLSCPASGSTFRSNVMGWYRQAPGKERELVAAITSSGGSTYYADSVKGRFTISRDNAKNTVYLQMNSLKPEDTAVYYCAAVGYGWDPYKRLVRHSYDSWGQGTQVTVSS | low polyreactivity |
| QVQLVESGGGLVQAGGSLRLSCPASGSTFRYYAMGWYRPAPGKERELVAGISSSGGSTYYADSVKGRFTISRDNAKNTVYLQMNSLKPEDTAVYYCNAARGTSRSWAVFADYDYWGQGSQVTVSS | high polyreactivity |
| QVQLVESGGGLVQAGGSLRLSCPASGSTFYGYVMGGYRQAPGKERELVAAISGSTYYADSVKGRFTISRDNAKNTVYLQMNSLKPEDTAVYYCNADDYRSYGGDSWGQGTQVTVSS | low polyreactivity |
| QVQLVESGGGLVQAGGSLRLSCPASGYILHKYAMGSYRQAPGKERELVATISGGGGSTYYADSVKGRFTISRDNAKNTVYLQMNSLKPEDTAVYYCAIEYPWLPRSYEYGGQGTQVTVSS | low polyreactivity |
| QVQLVESGGGLVQAGGSLRLSCPDSVFTFGATVMGWYRQAPGKEREFVAGITWSGDSTYYADSVKGRFTISRDNAKNTVYFQMNSLKPEDTAVYYCAADVYDGAYILDYDYWGQGTQVTVSS | low polyreactivity |
| QVQLVESGGGLVQAGGSLRLSCPDSVRIFYYNTMGWYRQAPGKERQLVAAISAGGGRTYYADSVKGRFTISRDNAKNTVYFQMNRLKPEDTAVYYCAARKRAQQGTRDHDYWGQGSQVTVSS | high polyreactivity |
| QVQLVESGGGLVQAGGSLRLSCPSSGFTFSAYAMGWYRQAPGKERELVAAISTRGGSTRYADSVKGRFTISRDNAKNTVNVQMNSLTPDDTAVYYCAADTRSFYRYDYWGQGTQVTVSS | high polyreactivity |
| QVQLVESGGGLVQAGGSLRLSCSACGSIFFYYAMGWYRQAPGKERELVAAITFTGGSTYYADSVKGRFTISRDNAKNTVYLRMNSLKPEDTAVYYCAADWYYGDEYEYWGQGTQVTVSS | high polyreactivity |
| QVQLVESGGGLVQAGGSLRLSCSASGFIFRFYGMGWYRQAPGKERELVASIRRSGGSTYYADSVKGRFTISRDNAKNSVYLQMNSLKPEDTAVYDCAARWYVYVHFERYYWGQGTQVTVSS | high polyreactivity |
| QVQLVESGGGLVQAGGSLRLSCSASGFIFYLYTMGWYRQAPGKERELVAAITKSGTRTYYADSVKGRFTISRDNAKNTVYLQMNSLKPEDTAVYYCAAEWGSSYRWGMDYWGQGTQVTVSS | high polyreactivity |
| QVQLVESGGGLVQAGGSLRLSCSASGFIYPNNAMGWYRQAPGKERELVARISYGGGDTHYADSVKGRFTISRDNAKNTVYLQMNSLKPEDTAVYYCAVKDGQDDYWGQGTQVTVSS | low polyreactivity |
| QVQLVESGGGLVQAGGSLRLSCSASGFTFWVNAMGWYRQAPGKERELVAAISRRGGRTYYADSVKGRYTISRDNAKNTVYLQMNSLKPEDTAVYYCNKEDVGCSESDYWGQGTQVTVSS | high polyreactivity |
| QVQLVESGGGLVQAGGSLRLSCSASGFTFYYAMGWYRQAPGKERELVAAITSSGTTYYADSVKGRFTISRDNAKNTVYLQMHSLKPEDTAVYYCNAVRWSKYAFYDYWGQGTQVTVSS | high polyreactivity |
| QVQLVESGGGLVQAGGSLRLSCSASGIIFGWYAMGWYRKAPGKEREFVATISWSGASTYYADSVKGRFTISRDNAKNTVYLQLNSLKPEDTAVYYCAAVGRRQAFGRRDYWGQGKQVTVSS | high polyreactivity |
| QVQLVESGGGLVQAGGSLRLSCSASGIIFIYYGMGWYRKAPGKERELVAAISRSGGRTYYADSVKGRFTISRDNANNTVYFHMNSLKPEDTAVYYCANTYTQTGFDYWGQGTQVTVSS | high polyreactivity |
| QVQLVESGGGLVQAGGSLRLSCSASGIIFIYYGMGWYRKAPGTERELVAAISRSGGRTYYADSVKGRFTISRDNANNIVYLQMNSLKPEDTAVYYCATTYTPTGFDYWGQGTQVTVSS | high polyreactivity |
| QVQLVESGGGLVQAGGSLRLSCSASGIIFKYYAMGWYRQAPVKERELVAAISRSSGSTYYADSVKGRFTISRDNAKNTVYLQMNSLKPEDTAVYYCAASGWQQKLDYWVQGTQVTVSS | high polyreactivity |
| QVQLVESGGGLVQAGGSLRLSCSASGITFGRNTKGWYRQAPGKERELVAASDSGGNTYADSVKGRFTISRDNAKNTVYLQMNSLKPEDTAVYYCAVDGGEFSSYGYWGQGTQVTVSS | low polyreactivity |
| QVQLVESGGGLVQAGGSLRLSCSASGLIFPSNTMGWYRQAPGTERELVAAITFSGDSTNYADSVKGRFTISRDNAKNTVYVQMNSLKPEDTAVYYCAASQVSDTTRFGYWGQGTQVTVSS | low polyreactivity |
| QVQLVESGGGLVQAGGSLRLSCSASGNIFFGYAMGLYRQAPGKERQFVASITKIGGSTYYADSVKGRFTISRDNAKNTVYLQLNSLKPEDTAVYYCAARLGHSVNPGGERWDVVYWGQGTQVTVSS | low polyreactivity |
